Changes are numbered by the printed parent chain.
T1: human ICOS-mFc (Chimerigen) (human, UniProt Q9Y6W8 21-140)
T1 construct: also called human ICOS receptor; human ICOS Receptor; not shown: mouse Fc of the bought construct
T1 sequence: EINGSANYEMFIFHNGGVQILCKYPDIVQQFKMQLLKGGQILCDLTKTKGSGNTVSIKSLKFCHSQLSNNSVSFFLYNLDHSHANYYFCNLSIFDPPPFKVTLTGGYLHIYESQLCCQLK

T2: mouse ICOS-mFc (Chimerigen) (mouse, UniProt Q9WVS0 21-141, limits assumed)
T2 construct: also called mouse ICOS receptor; mouse ICOS Receptor; not shown: mouse Fc of the bought construct
T2 sequence: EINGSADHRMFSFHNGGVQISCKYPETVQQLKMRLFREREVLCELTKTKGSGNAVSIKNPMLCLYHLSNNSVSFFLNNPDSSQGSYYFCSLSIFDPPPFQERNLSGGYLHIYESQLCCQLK

B1: STIM006 human IgG1 (antibody, V domains shown)
VH: QVQLVESGGGLVKPGGSLRLSCAASGFTFSDYFMSWIRQAPGKGLEWISYISSSGSTIYYADSVRGRFTISRDNAKYSLYLQMNSLRSEDTAVYYCARDHYDGSGIYPLYYYYGLDVWGQGTTVTVSS
VL: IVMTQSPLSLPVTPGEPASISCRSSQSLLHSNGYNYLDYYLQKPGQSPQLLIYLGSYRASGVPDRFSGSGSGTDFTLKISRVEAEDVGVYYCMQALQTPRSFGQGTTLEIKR
notes: Human IgG1 format
B2: STIM004 human IgG1 (antibody, V domains shown)
VH: EVQLVESGGGVVRPGGSLRLSCAASGLTFDDYGMSWVRQVPGKGLEWVSGINWNGDNTDYADSVKGRFTISRDNAKNSLYLQMNSLRAEDTALYYCARDYYGSGSYYNVPFDYWGQGTLVTVSS
VL: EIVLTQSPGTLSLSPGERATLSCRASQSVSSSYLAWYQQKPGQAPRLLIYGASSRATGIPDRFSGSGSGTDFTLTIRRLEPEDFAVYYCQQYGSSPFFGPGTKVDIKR
notes: Human IgG1 format
B3: STIM009 human IgG1 (antibody, V domains shown)
VH: QVQLVESGGGLVKPGGSLRLSCAASGFTFSDYYMSWIRQAPGKGLEWVSYISSSGSTIYYADSVKGRFTISRDNAKNSLYLQINSLRAEDTAVYYCARDFYDILTDSPYFYYGVDVWGQGTTVTVSS
VL: not shown
notes: Human IgG1 format
B4: STIM002 human IgG1 (antibody, V domains shown)
VH: QVQLVQSGGEVKKPGASVKVSCKASGYTFTSYGFSWVRQAPGQGLEWMGWISAYNGNTNYAQKLQGRVTMTTDTSTSTAYMELRSLRSDDTAVYYCARSTYFYGSGTLYGMDVWGQGTTVTVSS
VL: DIVMTQSPLSLPVTPGEPASISCRSSQSLLHSDGYNYLDWYLQKPGQSPQLLIYLGSTRASGFPDRFSGSGSGTDFTLKISRVEAEDVGVYYCMQALQTPLSFGQGTKLEIKR
notes: Human IgG1 format
B5: STIM002-B human IgG1 (antibody, V domains shown)
VH: B4 VH
VL: B4 VL with Y37C, L101C
notes: Human IgG1 format
B6: STIM005 human IgG1 (antibody, V domains shown)
VH: QVQLVQSGAEVKKPGASVKVSCKASGYTFNSYGIIWVRQAPGQGLEWMGWISVHNGNTNCAQKLQGRVTMTTDTSTSTAYMELRSLRTDDTAVYYCARAGYDILTDFSDAFDIWGHGTMVTVSS
VL: DIQMTQSPSSLSASVGDRVTITCRASQNINNFLNWYQQKEGKGPKLLIYAASSLQRGIPSTFSGSGSGTDFTLTISSLQPEDFATYICQQSYGIPWVGQGTKVEIKR
notes: Human IgG1 format
B7: STIM001 human IgG4.PE (antibody, V domains shown)
VH: QVQVVQSGAEVKKPGASVKVSCKASGYTFSTFGITWVRQAPGQGLEWMGWISAYNGDTNYAQNLQGRVIMTTDTSTSTAYMELRSLRSDDTAVYYCARSSGHYYYYGMDVWGQGTTVTVSS
VL: DIVMTQSPLSLPVTPGEPASISCRSSQSLLHSNEYNYLDWYLQKPGQSPQLLIFLGSNRASGVPDRFSGSGSGTDFTLKITRVEAEDVGIYYCMQSLQTPLTFGGGTKVEIK
notes: Human IgG4.PE (null-effector) format
B8: STIM003 human IgG4.PE (antibody, V domains shown)
VH: B2 VH with A23V, L27V, V40A, D56G, N57D, A61S, Y100F, N108H, T118I
VL: EIVLTQSPGTLSLSPGERATLSCRASQSVSRSYLAWYQQKRGQAPRLLIYGASSRATGIPDRFSGDGSGTDFTLSISRLEPEDFAVYYCHQYDMSPFTFGPGTKVDIK
notes: as for B7
B9: STIM002-B human IgG4.PE (antibody, V domains shown)
VH: B4 VH
VL: DIVMTQSPLSLPVTPGEPASISCRSSQSLLHSDGYNCLDWYLQKPGQSPQLLIYLGSTRASGFPDRFSGSGSGTDFTLKISRVEAEDVGVYYCMQALQTPCSFGQGTKLEIK
notes: as for B7
B10: STIM009 human IgG4.PE (antibody, V domains shown)
VH: B3 VH
VL: not shown
notes: as for B7

biological target: T1, human ICOS-mFc (Chimerigen); experiment: HTRF neutralisation of Alexa 647 human B7-H2 binding to human ICOS-mFc; human IgG1; mean, n = 4
Description: (§1) 5 μl of ICOS receptor (human ICOS-mFc, 20 nM, 5 nM final or mouse ICOS-mFc 4 nM, 1 nM final (Chimerigen)) was added to required wells. Plate was incubated for 1 hr at room temperature (RT).
(§2) Finally, 5 μl of anti-mouse IgG donor mAb (Southern Biotech) labelled with europium cryptate (Cis Bio), 40 nM, 10 nM final was added to each well and the assay was left in the dark at RT to incubate for a further 2 hours. After incubation, assay was read on Envision plate reader (Perkin Elmer) using a standard HTRF protocol. […] Titration curves and IC50 values [M] were plotted using Graphpad (Prism). IC50 values were calculated by first transforming the data using equation X=Log(X). The transformed data was then fitted using nonlinear regression, using fitting algorithm, log (inhibitor) vs. response—variable slope (four parameters).

B1 was tested. Which IC50 did it give?
Its IC50 is 2.2 nM.

B2 was tested. Which IC50 did it give?
Its IC50 is 233 nM.

Which IC50 does the source give for B3 here?
Its IC50 is 30.5 nM.

With B4 as the binder, how does the IC50 read?
The IC50 was 1.9 nM.

How did the IC50 turn out when B5 was run?
Its IC50 is 3.6 nM.

Which IC50 does the source give for B6 here?
The IC50 was 2.5 nM.

biological target: T2, mouse ICOS-mFc (Chimerigen); experiment: HTRF neutralisation of Alexa 647 mouse B7-H2 binding to mouse ICOS-mFc; human IgG1; mean, n = 3
Description: as §1, §2

For B2, which IC50 is on record?
Its IC50 is 22.1 nM.

B4 was tested. Which IC50 did it give?
Its IC50 is 6.9 nM.

With B5 as the binder, how does the IC50 read?
The IC50 was 30 nM.

For B6, which IC50 is on record?
Its IC50 is 0.3 nM.

biological target: T2, mouse ICOS-mFc (Chimerigen); experiment: HTRF neutralisation of Alexa 647 mouse B7-H2 binding to mouse ICOS-mFc; human IgG4.PE; mean, n = 3
Description: as §1, §2

For B7, which IC50 is on record?
Its IC50 is 4.7 nM.

With B8 as the binder, how does the IC50 read?
Its IC50 is 0.2 nM.

B9 was tested. Which IC50 did it give?
The IC50 was 43.9 nM.

biological target: T1, human ICOS-mFc (Chimerigen); experiment: HTRF neutralisation of Alexa 647 human B7-H2 binding to human ICOS-mFc; human IgG4.PE; mean, n = 4
Description: as §1, §2

B7 was tested. Which IC50 did it give?
Its IC50 is 1.3 nM.

How did the IC50 turn out when B8 was run?
The IC50 was 1.2 nM.

With B10 as the binder, how does the IC50 read?
The IC50 was 4.6 nM.

How did the IC50 turn out when B9 was run?
The IC50 was 3.4 nM.
